# Experiment: soluble on expression in E. coli; label from the status in PepcDB or PDB records
row,Sequence,soluble on expression in E. coli
1,MPLTFAHSFADAVPSLSVPWRAEQWPDPRIIVFNHELGQELGIDEASLLSNITQQGHAQAYSGHQFGQFNPLLGDGRALVLGDCAQTNAPHGQFEISLKGSGPTPFARRGDGRATLGPMLREYLISEALHGLGIPTTRSLAVITTGTDVQRERLLPGAVVVRVAQNHLRVGSVQCAAMRDDDSLAALVRYALSSHEDGVSDAEAAGLLLRRVSTSQAKLVAQWMRFGFVHGVMNTDNVTLSGQTIDFGPCAFIDSFHPQAVFSSIDSHGRYSFGRQPSIMGWNIARLAEALLPLMSIDEARNIVHEFPDMYRRSWLDEMADAVGISPDDDHAAGVLDDLVALLDVHRPDYAQFMRSLSDGTTVSLFPWAQQWEAEVSSLRVAAPRNPVYVPRNYLVEDALEHAMNADMSVFSLLVEAGKNPYLREKRFEKLENPAPETWQDYVTYCGTLEHHHHHH,soluble
2,GMIQVPASFDIQGHRGCRGLLPENTIAAFTKALLLGVTTLEFDLVISKDNRVVVSHDTFFHHEITMMVDGEDVTEANEKNFNLYAMNYADIKEIDVGMKTHPRFKSQKKVPAVKPLFRELIETAEKLSAKIQYNGEIKSTVEGDNIDHPNIALFCDLVVAEIKKAHITDRFTLQSFDVRALEYMHSQYPDIKLSYLVETKGTLKKQLEKLSFTPAVYSPDVTLVSKKDIDAAHKLGMRVIPWTVNTKEEIETLISLGVDGIITDYPDLFFEK,soluble
3,MGQEKLLFDQKYKIIKGEKKEKKKNQRANRREHQQKREIMRFKKSFTCIDMHTEGEAARIVTSGLPHIPGSNMAEKKAYLQENMDYLRRGIMLEPRGHDDMFGAFLFDPIEEGADLGIVFMDTGGYLNMCGHNSIAAVTAAVETGIVSVPAKATNVPVVLDTPAGLVRGTAHLQSGTESEVSNASIINVPSFLYQQDVVVVLPKPYGEVRVDIAFGGNFFAIVPAEQLGIDISVQNLSRLQEAGELLRTEINRSVKVQHPQLPHINTVDCVEIYGPPTNPEANYKNVVIFGNRQADRSPCGTGTSAKMATLYAKGQLRIGETFVYESILGSLFQGRVLGEERIPGVKVPVTKDAEEGMLVVTAEITGKAFIMGFNTMLFDPTDPFKNGFTLKQYIWSSSVDKLAAALEHHHHHH,soluble
4,MGHHHHHHSHMKFRAKIVDGACLNHFTRISNMIAKLAKTCTLRISPDKLNFILCDKLANGGVSMWCELEQENFFNEFQMEGVSAENNEIYLELTSENLSRALKTAQNARALKIKLTNKHFPCLTVSVELLSMSSSSRIVTHDIPIKVIPRKLWKDLQEPVVP,not soluble
5,MKIISFVLPCLLVLAGCSTPSQPEAPKPPQIGMANPASVYCQQKGGTLIPVQTAQGVSNNCKLPGGETIDEWALWRRDHPAGEKLEHHHHHH,not soluble
6,MKLKAILIVALSVVLFLVGYREMKPISDEQKMESMIKALEKNDAKVEKWSWLARETKTISNIHTFQKLLNDVKEKANIQKWEVEQSPDGYKATSYKKLSSYEERVVVTWSKENTKENTFIIFEVSGAKWDPKYVQNMNKIFSEKPIIYTCVQGVLNDKIEGVLQNKTNQVLKDLSARAIEQVEERAFVSVSAYNKKWDDALSTNREKINVQIAIRSTDNKDTIVVGTPIITSEY,not soluble
7,GPGSMFYKMKLERNIKVEPHLLERTLHRHLEEYLRKAVEGTPLHLSLGNALRSGLARTNQNSSAVIIAVLDILNTSSLEGRVLDDGSVSFFVKYEGLVFKLHRGEVIDVIVSSVEREGWWGDVMGVGRMYISRGQMGNEWVYESDGMRGIWITKDGARSVKEGEIVRVRVVAETPQSEGVLAVGSMVGNYLGPL,not soluble
8,MNYRHIYHAGNFADVFKHIIVTRIIEYLKRKEKAFRVIDTHAGIGIYDLSSLEAHKTGEWREGVYQLLSTPIPEDLKALLYPWCNIIETLNKGKKDILFYPGSPVLIRQLLRKQDRLTAIELHREDYHILAKNFAGDYQTKVLHLNGWLSLNAHLPPKEKRGFILVDPPFEKPGEFSRLIEGLMKAYRRFSGGIYALWYPVKYDKEIENFLHALHQTGIPKILQLEMRIRKSSIPPTMNGSGMILINPPYLLEEEIKKLSPFLIARLGQDKNAQITHKWIQKEQLLC,not soluble
9,GLEIHVQIDTKSKLFCNCSTNYLDAEPNTNVCPVCLGLPGAKPLPPNKKAVEVAIMVAKMLGCKIVVDEDIYFQRKHYDYPDLPSGYQRTSTPIGVDGEFMGIGIHEVHLEEDPGQYNPSFGIVDYNRSGTPLIEIVTKPDIKSPEEAREFLKQLMTLFRYLGCLRGEGTMRADVNISIEYMGVQGNRVEVKNVNSIKGVYKVLKYELIRQKNIIKR,not soluble
10,MELARPRSNFQSDLDFCPDCGSVLPLPGIQDTVICSRCGFSIDVRDCEGKVVKTSVVFNKLGATIPLSVDEGPELQGPVIDRRCPRCGHEGMAYHTRQMRSADEGQTVFYTCINCKFQEKEDS,soluble
11,MADLPSISLITATYNAAQHLPGLIESVRQQSDRAFEWIVIDGASEDGTLDLIRGAQDVITDYVSEPDFGIFHALNKGIQRATGDYYLVVGADDRLDPLAIANYKQAAASSQADLISAYIYSEKKAIIKPTGGAIWHHGVQAFITTQSVGTLIKRNLHEHYGYYSHYYPTAADALFILKVQQGGGKITTAEFIAGQYNTKGFSYRYKANLLCELFLIQKEFFPKSIQLLLLIYRLIKNYRYLLEHHHHHH,not soluble
12,MNDSAPRRVRVRAPELIGKGGWLNTGDKQYTLADLRGRIVVLDFWTFCCINCLHVLDELRELEEKHRDTVVIIGVHSPKFVHEAEHQAVVDAVERYGVEHPVLDDPELATWKQYAVRAWPTLVVIDPEGYVVAQHAGEGHAHAIAALVAELEAEHEAKGTLRRGDGPYVAPEPEPTVLRFPGKALLLPSGNFLVSDTTRHQLVELAADGESVVRRIGSGIRGFADGPADAASFSEPQGMTLLDEDVVVVADTVNHALRRLDLATGEVTTLAGTGRQWWQGSPASGPAREVDLSSPWDVAVFGGRVWIAMAGGAPAVDVRPGGGDGRGRGGHDERGAGRRTGLEHHHHHH,soluble
13,GILDPEERYEHQLRQLNDMGFFDFDRNVAALRRSGGSVQGALDSLLNGDV,soluble
14,MRAERRKQLFRLLGDLPDRRPISVETLRIEEREENIVETLLLDLNGHEKAPAYFVKPKKTEGPCPAVLFQHSHGGQYDRGKSELIEGADYLKTPSFSDELTSLGYGVLAIDHWGFGDRRGKAESEIFKEMLLTGKVMWGMMIYDSLSALDYMQSRSDVQPDRIGTIGMSMGGLMAWWTAALDDRIKVCVDLCSQVDHHVLIKTQNLDRHGFYYYVPSLAKHFSASEIQSLIAPRPHLSLVGVHDRLTPAEGVDKIEKELTAVYAGQGAADCYRVVRSASGHFETAVIRHEAVRFLQKWLLEHHHHHH,not soluble
15,PKYTLHYFPLMGRAELCRFVLAAHGEEFTDRVVEMADWPNLKATMYSNAMPVLDIDGTKMSQSMCIARHLAREFGLDGKTSLEKYRVDEITETLQDIFNDVVKIKFAPEAAKEAVQQNYEKSCKRLAPFLEGLLVSNGGGDGFFVGNSMTLADLHCYVALEVPLKHTPELLKDCPKIVALRKRVAECPKIAAYLKKRPVRDF,soluble
16,STSGANSSGSYLPSEIRSSKIDDNYLKELNEDLKLRKQELLEMLKPLEDKNNLLFQRLMSNLEEKQRSLQIMRQIMAGKGCEESSVMELLKEAEEMKQNLERKNKMLRKEMEMLWNKTFEAEELSDQQKAPQTKNKADLQDGKEKQQRKMEWVKYQEQNNILQNDFHGKVIELRIEALKNYQKANDLKLSLYLQQNFEPMQAFLNLPGSQGIRIV,soluble
17,MSLELVSLLMQDCQSTGDIQSKLKRLFAGTIEQMLEAEMEDHLGYEKNSIEGNNSGNSRNGYNRKTIISDYGASEIAVPRDRNGEFEPKILEKRQTRTDEIEQKILSMYSKGMSQRDIEDTLREIYGAEIPQTLISKITDKILPEVNEWQNRPLESVYPIIYFDGIVFKSRKDSQIINKCVYSVLGIDMNGHKDILGIWLSENESASFYASICSDLKKRGIQDIFIACHDNLKGLGEAINAVFPKTKQQLCIVHQIRNSTKFVQYKDRKAICADLKKIYGAVNLDDAEYAKEEFREKWDKKYPSILRSWDANWAELTTFFNYPEQIRHLIYTTNAVEAYHRMVRKFTKTKSIFPTDDSIRKVVFLSSREITKKWTQPSRGWPMAYSQIMIFFADRFIAEGHHHHHH,soluble
18,SNAMTGTLLSFGHGYTARVLSRALAPQGWRIIGTSRNPDQMEAIRASGAEPLLWPGEEPSLDGVTHLLISTAPDSGGDPVLAALGDQIAARAAQFRWVGYLSTTAVYGDHDGAWVDETTPLTPTAARGRWRVMAEQQWQAVPNLPLHVFRLAGIYGPGRGPFSKLGKGGIRRIIKPGQVFSRIHVEDIAQVLAASMARPDPGAVYNVCDDEPVPPQDVIAYAAELQGLPLPPAVDFDKADLTPMARSFYSENKRVRNDRIKEELGVRLKYPNYRVGLEALQADAET,soluble
19,MAIETAILEKIKQYQTIIIHRHQRPDPDCIGSQLALRAILRASFPEKTVVAVGKHYPGFDWMGQADQEVSDDTYHQALVIVVDTANQPRVDDERWQTGAAVIKIDHHPNDDAFGDLQWVLPQASSTSEIIYDWFEANHADLTMPDDAARLLYAGIVGDTGRFMYPATSANTFAVAGKLLAYDFSMTAVNQAEDEISPEMARLSAYAYQNLEILPSGAAYLKLTDEIVESFGLAASDSTSAIVPLPGKITSVVAWAIFVESKDKTFRVRLRSKGPSINELAKRHGGGGHALASGAAAKDQAEIDQVIHELDQLVADTKGENELEHHHHHH,soluble
20,NAMPPIIKRRVMRKIIIASQNPAKVNAVRSAFSTVFPDQEWEFIGVSVPSEVADQPMSDEETKQGALNRVRNAKQRHPGAEYYVGLEAGIEENKTFAWMIVESDQQRGESRSACLMLPPLVLERLRQAKELGDVMDEVFGTENIKQKGGAIGLLTRHHLTRSTVYHQALILALIPFINPEHYPSA,soluble
21,MSLGKATGFLEFGRELPKKIDPAERIKNNKEFVLNQEFGKKINQQASRCMDCGVPFCHNGCPIGNIIPEFNDAVYRDSWEEAWNILSSTNNFPEFTGRVCPAPCETACVLGINQDPITICNIEKTIVERAYQEGYAKPKTPRSRTGKTVAIIGSGPAGLAAAEQLNAAGHSVTVFERDEKVGGLLRFGIPDFKLGMDVIDRKINLMEQAGVKFVVNAHIGVDINAQQLRQEFDAVLLTGGSTVPRDLSIPGRDLKGVYFAMQFLAQNNRRANGMDLKGEEIHAKGKHVVVIGGGDTGSDCVGTSNRHGAASITQVEIMPIPPQKRPVNMPWPQYPMILRTSTSHEEGCERHWNILTKEFIGNEQGEVTGLRIADIVWKDAAPGERPSFDEVVGSERVIPCDMAFLAMGFLHPEPHGVLAQLGIKLDERGNVATQDFATNQKGVFAAGDMRTGQSLVVRCINEGRECARAVDTFLMGNTHLEAKADSLMLSAEGHHHHHH,soluble
22,MTTIFKLLRLPKNTIFQVLRQFKCLDLIAFSVCSKYAKSCVMYSTTSNKQKTIRIEFDDTIQFDLSPITKHICLFELLADQRNVLRKNFNECEMIINGNNFIRTEWSIAGFAIKDWMKHFLDIFGGPKIDIISFSGKGFNRTWFPRDLFRIFNAQSFYCVIDFILKILRSFQYPESLTTCKGKSLGRKPLNTIFILNFKSVKYYGRHQFQLTLNQLLAMNISTLKLLDSAISSKNLNFFLKHWLNGSNKRLEVLEIFGLNAYSPTIIFKNVAYQVILEDEIFSIYNEVFTFGYEIERSCDETRAAIFINSMPEVSHYCFRMIVGEVPNYLIIY,not soluble
23,MIKLVRIDYRLLHGQVVFAWTRALDIDHIIVANANAAGDAFVSMSLSLAKPAGVSLDIITVEQAAEKLASGKLDHKKVMVVLGNTAETLAFVEKVPGISVINYGGIAQKEGAQQFGKAIYLTEQEIADSQALKAKGIRLEMRQVPAHSAELLNDKL,not soluble

# Source: the DeepSol protein solubility set
